# Molecular target: T1, PDZRN3_1, Q9UPQ7
# T1 sequence (Q9UPQ7 244-349, limits assumed, looked up): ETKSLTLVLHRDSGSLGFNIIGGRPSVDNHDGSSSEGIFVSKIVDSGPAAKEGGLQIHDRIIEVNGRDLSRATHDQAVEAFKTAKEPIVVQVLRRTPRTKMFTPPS
# Assay: holdup assay
# Design: key: below the threshold = too weak to quantify, mostly under pKd 3.1 to 4
# Conditions: plain residues with an end cap or a label only (N-terminal biotin on a linker: ado-ado)
row,Binder,pKd
1,"REKKFFCTIL [GNG4, P50150]",4.14
2,"DHLGGGGESM [TNRC6A, Q8NDV7]",below the threshold

# Molecular target: Inadl_8, Q8NI35
# Assay: holdup assay
# Design: key: below the threshold = too weak to quantify, mostly under pKd 3.1 to 4
# Conditions: plain residues with an end cap or a label only (N-terminal biotin on a linker: ado-ado)
# Inadl_8, Q8NI35, sequence (Q8NI35 1425-1530): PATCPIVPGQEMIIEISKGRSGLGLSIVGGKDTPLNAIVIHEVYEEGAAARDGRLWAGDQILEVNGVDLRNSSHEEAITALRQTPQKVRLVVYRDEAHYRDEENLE
row,Binder,pKd
1,"REKKFFCTIL [GNG4, P50150]",4.52
2,"DHLGGGGESM [TNRC6A, Q8NDV7]",below the threshold

# Molecular target: MAGI1_1, Q96QZ7
# Assay: holdup assay
# Design: key: below the threshold = too weak to quantify, mostly under pKd 3.1 to 4
# Conditions: plain residues with an end cap or a label only (N-terminal biotin on a linker: ado-ado)
# MAGI1_1, Q96QZ7, sequence (Q96QZ7 1-106): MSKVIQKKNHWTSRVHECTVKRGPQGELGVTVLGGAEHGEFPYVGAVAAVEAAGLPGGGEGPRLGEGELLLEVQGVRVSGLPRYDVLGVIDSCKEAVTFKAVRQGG
row,Binder,pKd
1,"REKKFFCTIL [GNG4, P50150]",below the threshold
2,"DHLGGGGESM [TNRC6A, Q8NDV7]",below the threshold

# Molecular target: GOPC, Q9HD26
# Assay: holdup assay
# Design: key: below the threshold = too weak to quantify, mostly under pKd 3.1 to 4
# Conditions: plain residues with an end cap or a label only (N-terminal biotin on a linker: ado-ado)
row,Binder,pKd
1,"REKKFFCTIL [GNG4, P50150]",5.18
2,"DHLGGGGESM [TNRC6A, Q8NDV7]",below the threshold

# Molecular target: Inadl_5, Q8NI35
# Assay: holdup assay
# Design: key: below the threshold = too weak to quantify, mostly under pKd 3.1 to 4
# Conditions: plain residues with an end cap or a label only (N-terminal biotin on a linker: ado-ado)
# Inadl_5, Q8NI35, sequence (Q8NI35 673-780): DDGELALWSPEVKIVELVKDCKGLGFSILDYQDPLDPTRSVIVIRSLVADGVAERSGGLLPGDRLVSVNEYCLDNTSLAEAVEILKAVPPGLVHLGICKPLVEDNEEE
row,Binder,pKd
1,"REKKFFCTIL [GNG4, P50150]",below the threshold
2,"DHLGGGGESM [TNRC6A, Q8NDV7]",below the threshold

# Molecular target: MAGI2_3, Q86UL8
# Assay: holdup assay
# Design: key: below the threshold = too weak to quantify, mostly under pKd 3.1 to 4
# Conditions: plain residues with an end cap or a label only (N-terminal biotin on a linker: ado-ado)
# MAGI2_3, Q86UL8, sequence (Q86UL8 600-682): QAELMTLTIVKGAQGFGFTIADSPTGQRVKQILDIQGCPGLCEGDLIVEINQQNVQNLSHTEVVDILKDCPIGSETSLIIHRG
row,Binder,pKd
1,"REKKFFCTIL [GNG4, P50150]",below the threshold
2,"DHLGGGGESM [TNRC6A, Q8NDV7]",below the threshold

# Molecular target: LDB3, O75112
# Assay: holdup assay
# Design: key: below the threshold = too weak to quantify, mostly under pKd 3.1 to 4
# Conditions: plain residues with an end cap or a label only (N-terminal biotin on a linker: ado-ado)
# LDB3, O75112, sequence (O75112 1-94): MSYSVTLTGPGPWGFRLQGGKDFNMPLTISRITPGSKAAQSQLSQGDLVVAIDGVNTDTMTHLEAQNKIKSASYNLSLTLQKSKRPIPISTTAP
row,Binder,pKd
1,"REKKFFCTIL [GNG4, P50150]",below the threshold
2,"DHLGGGGESM [TNRC6A, Q8NDV7]",below the threshold

# Molecular target: GRIP2_4, Q9C0E4
# Assay: holdup assay
# Design: key: below the threshold = too weak to quantify, mostly under pKd 3.1 to 4
# Conditions: plain residues with an end cap or a label only (N-terminal biotin on a linker: ado-ado)
# GRIP2_4, Q9C0E4, sequence (Q9C0E4 446-548): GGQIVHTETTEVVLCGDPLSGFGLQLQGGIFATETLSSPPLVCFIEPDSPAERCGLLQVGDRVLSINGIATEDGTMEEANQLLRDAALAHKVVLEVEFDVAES
row,Binder,pKd
1,"REKKFFCTIL [GNG4, P50150]",below the threshold
2,"DHLGGGGESM [TNRC6A, Q8NDV7]",below the threshold

# Molecular target: DLG4_3, P78352
# Assay: holdup assay
# Design: key: below the threshold = too weak to quantify, mostly under pKd 3.1 to 4
# Conditions: plain residues with an end cap or a label only (N-terminal biotin on a linker: ado-ado)
# DLG4_3, P78352, sequence (P78352 306-403): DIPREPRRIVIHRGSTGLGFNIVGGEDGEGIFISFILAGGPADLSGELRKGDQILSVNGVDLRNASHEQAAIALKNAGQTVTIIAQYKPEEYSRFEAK
row,Binder,pKd
1,"REKKFFCTIL [GNG4, P50150]",4.17
2,"DHLGGGGESM [TNRC6A, Q8NDV7]",below the threshold

# Molecular target: HTRA1, Q92743
# Assay: holdup assay
# Design: key: below the threshold = too weak to quantify, mostly under pKd 3.1 to 4
# Conditions: plain residues with an end cap or a label only (N-terminal biotin on a linker: ado-ado)
# HTRA1, Q92743, sequence (Q92743 360-477): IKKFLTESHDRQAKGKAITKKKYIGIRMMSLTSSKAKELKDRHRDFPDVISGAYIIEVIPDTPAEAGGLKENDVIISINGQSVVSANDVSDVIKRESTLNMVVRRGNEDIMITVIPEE
row,Binder,pKd
1,"REKKFFCTIL [GNG4, P50150]",5.48
2,"DHLGGGGESM [TNRC6A, Q8NDV7]",below the threshold

# Molecular target: FRMPD3, Q5JV73
# Assay: holdup assay
# Design: key: below the threshold = too weak to quantify, mostly under pKd 3.1 to 4
# Conditions: plain residues with an end cap or a label only (N-terminal biotin on a linker: ado-ado)
# FRMPD3, Q5JV73, sequence (Q5JV73 12-100): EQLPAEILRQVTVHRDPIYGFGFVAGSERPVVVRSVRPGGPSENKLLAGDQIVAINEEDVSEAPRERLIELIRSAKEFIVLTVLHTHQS
row,Binder,pKd
1,"REKKFFCTIL [GNG4, P50150]",below the threshold
2,"DHLGGGGESM [TNRC6A, Q8NDV7]",below the threshold

# Molecular target: GORASP1, Q9BQQ3
# Assay: holdup assay
# Design: key: below the threshold = too weak to quantify, mostly under pKd 3.1 to 4
# Conditions: plain residues with an end cap or a label only (N-terminal biotin on a linker: ado-ado)
# GORASP1, Q9BQQ3, sequence (Q9BQQ3 1-208): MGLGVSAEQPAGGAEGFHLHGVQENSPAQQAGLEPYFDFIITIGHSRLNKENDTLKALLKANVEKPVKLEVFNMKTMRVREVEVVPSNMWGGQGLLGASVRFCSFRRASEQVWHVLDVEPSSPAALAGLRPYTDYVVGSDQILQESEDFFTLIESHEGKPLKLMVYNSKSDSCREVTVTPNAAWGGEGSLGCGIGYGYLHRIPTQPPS
row,Binder,pKd
1,"REKKFFCTIL [GNG4, P50150]",5.07
2,"DHLGGGGESM [TNRC6A, Q8NDV7]",below the threshold

# Molecular target: IL16_3, Q14005
# Assay: holdup assay
# Design: key: below the threshold = too weak to quantify, mostly under pKd 3.1 to 4
# Conditions: plain residues with an end cap or a label only (N-terminal biotin on a linker: ado-ado)
# IL16_3, Q14005, sequence (Q14005 1107-1207): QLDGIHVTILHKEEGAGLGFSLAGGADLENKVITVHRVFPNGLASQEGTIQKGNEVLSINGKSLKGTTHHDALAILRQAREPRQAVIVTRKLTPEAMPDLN
row,Binder,pKd
1,"REKKFFCTIL [GNG4, P50150]",below the threshold
2,"DHLGGGGESM [TNRC6A, Q8NDV7]",below the threshold

# Molecular target: T2, LNX2_2, Q8N448
# T2 sequence (Q8N448 334-432, limits assumed, looked up): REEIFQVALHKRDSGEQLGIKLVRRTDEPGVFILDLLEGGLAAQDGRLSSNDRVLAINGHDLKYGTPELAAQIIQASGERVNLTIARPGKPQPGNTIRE
# Assay: holdup assay
# Design: key: below the threshold = too weak to quantify, mostly under pKd 3.1 to 4
# Conditions: plain residues with an end cap or a label only (N-terminal biotin on a linker: ado-ado)
row,Binder,pKd
1,"REKKFFCTIL [GNG4, P50150]",4.06
2,"DHLGGGGESM [TNRC6A, Q8NDV7]",below the threshold

# Molecular target: TJP1_2, Q07157
# Assay: holdup assay
# Design: key: below the threshold = too weak to quantify, mostly under pKd 3.1 to 4
# Conditions: plain residues with an end cap or a label only (N-terminal biotin on a linker: ado-ado)
# TJP1_2, Q07157, sequence (Q07157 181-274): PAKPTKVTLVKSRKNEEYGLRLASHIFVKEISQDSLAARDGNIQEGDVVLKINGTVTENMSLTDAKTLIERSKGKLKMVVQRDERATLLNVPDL
row,Binder,pKd
1,"REKKFFCTIL [GNG4, P50150]",below the threshold
2,"DHLGGGGESM [TNRC6A, Q8NDV7]",below the threshold

# Molecular target: LAP2, Q96RT1
# Assay: holdup assay
# Design: key: below the threshold = too weak to quantify, mostly under pKd 3.1 to 4
# Conditions: plain residues with an end cap or a label only (N-terminal biotin on a linker: ado-ado)
# LAP2, Q96RT1, sequence (Q96RT1 other isoform, or with tags, fused parts or gaps): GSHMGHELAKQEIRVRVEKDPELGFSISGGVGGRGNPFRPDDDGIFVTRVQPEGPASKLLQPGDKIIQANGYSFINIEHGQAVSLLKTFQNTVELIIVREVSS
row,Binder,pKd
1,"REKKFFCTIL [GNG4, P50150]",3.79
2,"DHLGGGGESM [TNRC6A, Q8NDV7]",3.74

# Molecular target: GRASP, Q7Z6J2
# Assay: holdup assay
# Design: key: below the threshold = too weak to quantify, mostly under pKd 3.1 to 4
# Conditions: plain residues with an end cap or a label only (N-terminal biotin on a linker: ado-ado)
# GRASP, Q7Z6J2, sequence (Q7Z6J2 96-193): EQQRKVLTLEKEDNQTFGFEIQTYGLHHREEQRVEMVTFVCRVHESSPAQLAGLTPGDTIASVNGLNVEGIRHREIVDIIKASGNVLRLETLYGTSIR
row,Binder,pKd
1,"REKKFFCTIL [GNG4, P50150]",5.1
2,"DHLGGGGESM [TNRC6A, Q8NDV7]",below the threshold

# Molecular target: GRIP2_7, Q9C0E4
# Assay: holdup assay
# Design: key: below the threshold = too weak to quantify, mostly under pKd 3.1 to 4
# Conditions: plain residues with an end cap or a label only (N-terminal biotin on a linker: ado-ado)
# GRIP2_7, Q9C0E4, sequence (Q9C0E4 934-1023): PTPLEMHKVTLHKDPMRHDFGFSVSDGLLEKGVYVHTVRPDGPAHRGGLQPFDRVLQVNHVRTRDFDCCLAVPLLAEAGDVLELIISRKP
row,Binder,pKd
1,"REKKFFCTIL [GNG4, P50150]",below the threshold
2,"DHLGGGGESM [TNRC6A, Q8NDV7]",below the threshold

# Molecular target: T3, HTRA4, P83105
# T3 sequence (P83105 378-476, limits assumed, looked up): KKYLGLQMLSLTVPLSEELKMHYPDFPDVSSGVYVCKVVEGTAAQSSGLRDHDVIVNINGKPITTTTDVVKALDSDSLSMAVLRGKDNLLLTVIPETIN
# Assay: holdup assay
# Design: key: below the threshold = too weak to quantify, mostly under pKd 3.1 to 4
# Conditions: plain residues with an end cap or a label only (N-terminal biotin on a linker: ado-ado)
row,Binder,pKd
1,"REKKFFCTIL [GNG4, P50150]",4.76
2,"DHLGGGGESM [TNRC6A, Q8NDV7]",below the threshold

# Molecular target: Inadl_4, Q8NI35
# Assay: holdup assay
# Design: key: below the threshold = too weak to quantify, mostly under pKd 3.1 to 4
# Conditions: plain residues with an end cap or a label only (N-terminal biotin on a linker: ado-ado)
# Inadl_4, Q8NI35, sequence (Q8NI35 547-651): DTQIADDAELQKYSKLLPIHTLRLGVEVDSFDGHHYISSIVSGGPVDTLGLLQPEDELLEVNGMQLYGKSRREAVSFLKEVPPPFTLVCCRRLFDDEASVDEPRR
row,Binder,pKd
1,"REKKFFCTIL [GNG4, P50150]",below the threshold
2,"DHLGGGGESM [TNRC6A, Q8NDV7]",below the threshold

# Molecular target: LNX1_1, Q8TBB1
# Assay: holdup assay
# Design: key: below the threshold = too weak to quantify, mostly under pKd 3.1 to 4
# Conditions: plain residues with an end cap or a label only (N-terminal biotin on a linker: ado-ado)
# LNX1_1, Q8TBB1, sequence (Q8TBB1 261-371): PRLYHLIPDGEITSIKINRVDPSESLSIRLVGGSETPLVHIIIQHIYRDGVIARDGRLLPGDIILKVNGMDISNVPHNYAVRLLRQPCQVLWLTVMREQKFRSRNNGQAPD
row,Binder,pKd
1,"REKKFFCTIL [GNG4, P50150]",5.09
2,"DHLGGGGESM [TNRC6A, Q8NDV7]",below the threshold

# Molecular target: FRMPD4, Q14CM0
# Assay: holdup assay
# Design: key: below the threshold = too weak to quantify, mostly under pKd 3.1 to 4
# Conditions: plain residues with an end cap or a label only (N-terminal biotin on a linker: ado-ado)
# FRMPD4, Q14CM0, sequence (Q14CM0 67-160): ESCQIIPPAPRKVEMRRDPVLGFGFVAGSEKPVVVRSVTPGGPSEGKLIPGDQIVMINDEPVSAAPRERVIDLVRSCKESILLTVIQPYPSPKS
row,Binder,pKd
1,"REKKFFCTIL [GNG4, P50150]",4.23
2,"DHLGGGGESM [TNRC6A, Q8NDV7]",below the threshold

# Molecular target: DLG1_2, Q12959
# Assay: holdup assay
# Design: key: below the threshold = too weak to quantify, mostly under pKd 3.1 to 4
# Conditions: plain residues with an end cap or a label only (N-terminal biotin on a linker: ado-ado)
# DLG1_2, Q12959, sequence (Q12959 314-412): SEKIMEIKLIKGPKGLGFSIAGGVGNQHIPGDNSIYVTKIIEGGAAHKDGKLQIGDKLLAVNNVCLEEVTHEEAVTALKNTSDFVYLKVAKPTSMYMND
row,Binder,pKd
1,"REKKFFCTIL [GNG4, P50150]",4.3
2,"DHLGGGGESM [TNRC6A, Q8NDV7]",below the threshold

# Molecular target: T4, ARHGAP21, Q5T5U3
# T4 sequence (Q5T5U3 45-169, limits assumed, looked up): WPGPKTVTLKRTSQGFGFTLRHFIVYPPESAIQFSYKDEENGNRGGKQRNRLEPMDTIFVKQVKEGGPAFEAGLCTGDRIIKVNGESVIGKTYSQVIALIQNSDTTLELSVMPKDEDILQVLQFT
# Assay: holdup assay
# Design: key: below the threshold = too weak to quantify, mostly under pKd 3.1 to 4
# Conditions: plain residues with an end cap or a label only (N-terminal biotin on a linker: ado-ado)
row,Binder,pKd
1,"REKKFFCTIL [GNG4, P50150]",3.93
2,"DHLGGGGESM [TNRC6A, Q8NDV7]",below the threshold

# Molecular target: MAGI2_5, Q86UL8
# Assay: holdup assay
# Design: key: below the threshold = too weak to quantify, mostly under pKd 3.1 to 4
# Conditions: plain residues with an end cap or a label only (N-terminal biotin on a linker: ado-ado)
# MAGI2_5, Q86UL8, sequence (Q86UL8 915-1017): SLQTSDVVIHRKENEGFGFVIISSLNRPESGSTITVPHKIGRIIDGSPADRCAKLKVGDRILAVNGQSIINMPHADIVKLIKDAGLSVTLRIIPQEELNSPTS
row,Binder,pKd
1,"REKKFFCTIL [GNG4, P50150]",4.86
2,"DHLGGGGESM [TNRC6A, Q8NDV7]",below the threshold

# Molecular target: PDLIM1, O00151
# Assay: holdup assay
# Design: key: below the threshold = too weak to quantify, mostly under pKd 3.1 to 4
# Conditions: plain residues with an end cap or a label only (N-terminal biotin on a linker: ado-ado)
# PDLIM1, O00151, sequence (O00151 1-87): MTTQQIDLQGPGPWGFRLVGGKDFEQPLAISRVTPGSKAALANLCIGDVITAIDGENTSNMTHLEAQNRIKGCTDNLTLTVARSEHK
row,Binder,pKd
1,"REKKFFCTIL [GNG4, P50150]",below the threshold
2,"DHLGGGGESM [TNRC6A, Q8NDV7]",below the threshold

# Molecular target: DLG4_2, P78352
# Assay: holdup assay
# Design: key: below the threshold = too weak to quantify, mostly under pKd 3.1 to 4
# Conditions: plain residues with an end cap or a label only (N-terminal biotin on a linker: ado-ado)
# DLG4_2, P78352, sequence (P78352 155-259): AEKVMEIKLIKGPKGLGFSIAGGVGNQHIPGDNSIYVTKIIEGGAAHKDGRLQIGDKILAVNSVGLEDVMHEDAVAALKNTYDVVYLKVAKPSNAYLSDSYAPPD
row,Binder,pKd
1,"REKKFFCTIL [GNG4, P50150]",3.95
2,"DHLGGGGESM [TNRC6A, Q8NDV7]",below the threshold

# Molecular target: MAGI2_2, Q86UL8
# Assay: holdup assay
# Design: key: below the threshold = too weak to quantify, mostly under pKd 3.1 to 4
# Conditions: plain residues with an end cap or a label only (N-terminal biotin on a linker: ado-ado)
# MAGI2_2, Q86UL8, sequence (Q86UL8 410-522): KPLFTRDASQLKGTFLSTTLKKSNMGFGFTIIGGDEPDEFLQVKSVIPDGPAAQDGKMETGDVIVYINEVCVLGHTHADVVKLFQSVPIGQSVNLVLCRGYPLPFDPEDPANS
row,Binder,pKd
1,"REKKFFCTIL [GNG4, P50150]",4.63
2,"DHLGGGGESM [TNRC6A, Q8NDV7]",below the threshold

# Molecular target: IL16_4, Q14005
# Assay: holdup assay
# Design: key: below the threshold = too weak to quantify, mostly under pKd 3.1 to 4
# Conditions: plain residues with an end cap or a label only (N-terminal biotin on a linker: ado-ado)
# IL16_4, Q14005, sequence (Q14005 1229-1329): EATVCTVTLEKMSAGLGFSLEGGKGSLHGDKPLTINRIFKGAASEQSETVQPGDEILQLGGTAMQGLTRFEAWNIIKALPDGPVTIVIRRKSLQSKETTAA
row,Binder,pKd
1,"REKKFFCTIL [GNG4, P50150]",3.49
2,"DHLGGGGESM [TNRC6A, Q8NDV7]",below the threshold

# Molecular target: T5, APBA2_2, Q99767
# T5 sequence (Q99767 654-744, limits assumed, looked up): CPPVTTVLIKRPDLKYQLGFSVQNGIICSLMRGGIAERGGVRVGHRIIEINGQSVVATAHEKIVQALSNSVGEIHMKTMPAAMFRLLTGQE
# Assay: holdup assay
# Design: key: below the threshold = too weak to quantify, mostly under pKd 3.1 to 4
# Conditions: plain residues with an end cap or a label only (N-terminal biotin on a linker: ado-ado)
row,Binder,pKd
1,"REKKFFCTIL [GNG4, P50150]",3.47
2,"DHLGGGGESM [TNRC6A, Q8NDV7]",below the threshold

# Molecular target: DLG2_3, Q15700
# Assay: holdup assay
# Design: key: below the threshold = too weak to quantify, mostly under pKd 3.1 to 4
# Conditions: plain residues with an end cap or a label only (N-terminal biotin on a linker: ado-ado)
row,Binder,pKd
1,"REKKFFCTIL [GNG4, P50150]",4.41
2,"DHLGGGGESM [TNRC6A, Q8NDV7]",below the threshold

# Molecular target: DLG4_1, P78352
# Assay: holdup assay
# Design: key: below the threshold = too weak to quantify, mostly under pKd 3.1 to 4
# Conditions: plain residues with an end cap or a label only (N-terminal biotin on a linker: ado-ado)
# DLG4_1, P78352, sequence (P78352 62-152): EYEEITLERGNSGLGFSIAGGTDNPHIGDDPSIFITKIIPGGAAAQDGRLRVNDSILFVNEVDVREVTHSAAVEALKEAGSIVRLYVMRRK
row,Binder,pKd
1,"REKKFFCTIL [GNG4, P50150]",4.06
2,"DHLGGGGESM [TNRC6A, Q8NDV7]",below the threshold

# Molecular target: T6, LIN7C, Q9NUP9
# T6 sequence (Q9NUP9 88-185, limits assumed, looked up): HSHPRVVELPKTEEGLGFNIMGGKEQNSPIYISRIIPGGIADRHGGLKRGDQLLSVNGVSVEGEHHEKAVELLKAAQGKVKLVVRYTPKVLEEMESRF
# Assay: holdup assay
# Design: key: below the threshold = too weak to quantify, mostly under pKd 3.1 to 4
# Conditions: plain residues with an end cap or a label only (N-terminal biotin on a linker: ado-ado)
row,Binder,pKd
1,"REKKFFCTIL [GNG4, P50150]",below the threshold
2,"DHLGGGGESM [TNRC6A, Q8NDV7]",3.95

# — article PMC9482650, “Quantitative fragmentomics allow affinity mapping of interactomes” (Nature Communications, 2022)
